Target: T1, TOP3A 917 (truncated) (Homo sapiens, UniProt Q13472 16-917)
T1 sequence: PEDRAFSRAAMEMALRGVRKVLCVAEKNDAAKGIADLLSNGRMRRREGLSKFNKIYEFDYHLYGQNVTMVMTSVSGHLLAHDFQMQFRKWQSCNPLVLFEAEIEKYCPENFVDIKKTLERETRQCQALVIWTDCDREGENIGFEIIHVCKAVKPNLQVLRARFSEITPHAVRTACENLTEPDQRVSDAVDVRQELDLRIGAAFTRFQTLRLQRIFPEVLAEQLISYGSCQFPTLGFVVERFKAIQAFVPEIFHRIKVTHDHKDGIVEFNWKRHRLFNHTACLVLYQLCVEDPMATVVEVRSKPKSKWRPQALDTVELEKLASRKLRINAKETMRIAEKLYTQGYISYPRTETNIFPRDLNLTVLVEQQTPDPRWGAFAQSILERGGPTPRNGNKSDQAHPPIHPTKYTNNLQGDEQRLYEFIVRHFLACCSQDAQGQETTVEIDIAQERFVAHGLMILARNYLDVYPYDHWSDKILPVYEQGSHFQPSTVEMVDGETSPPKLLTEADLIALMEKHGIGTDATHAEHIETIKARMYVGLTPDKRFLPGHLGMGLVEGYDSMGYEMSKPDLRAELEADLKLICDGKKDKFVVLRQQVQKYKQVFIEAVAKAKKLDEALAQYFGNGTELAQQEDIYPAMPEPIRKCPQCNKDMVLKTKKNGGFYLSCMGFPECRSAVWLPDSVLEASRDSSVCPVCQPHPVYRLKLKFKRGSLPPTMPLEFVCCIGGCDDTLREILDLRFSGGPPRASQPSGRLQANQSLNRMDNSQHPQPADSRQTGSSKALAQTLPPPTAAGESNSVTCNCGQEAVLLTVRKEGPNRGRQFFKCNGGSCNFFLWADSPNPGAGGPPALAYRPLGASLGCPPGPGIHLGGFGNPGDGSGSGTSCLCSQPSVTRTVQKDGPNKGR
Assay: EMSA; no Mg2+ added; higher binding than full-length; 25 mM HEPES pH 7.5, 70 mM NaCl, 100 ug/ml BSA, 1 mM DTT, 10% glycerol, 10 fmol DNA in 20 ul, 37 C 15 min; 8% PAGE in 0.5x TBE at 4 C
Conditions: protein: recombinant; tags: 6xHis removed with TEV (cloning section: N-terminal TEV-cleavable 6xHis; purification section says C-terminal 6xHis); label: 5' 32P; single strand

TGTTATTATTATGTCCTACAAGCATTAATTAATTAACACA (ssDNA) [EMSA substrate (40 nt ssDNA)]
binding result: binds

From article PMC12585908, “Proteolytic cleavage activates the mitochondrial isoform of TOP3A”
